Laboratory results published in the supplement of paper PMC10567573.
± gives the standard deviation.

Assay: protein stability index of a GFP-peptide fusion (GPS, HEK-293T) (PSI 1-6); higher = more stable
Details: c terminus: a fixed tail appended
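Also: 24-mer peptide tiles fused after GFP, lentivirally expressed, FACS-sorted into six equal bins by GFP/DsRed ratio, decoded by Illumina sequencing, PSI is the read-weighted mean bin number.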

Row | Sequence | protein stability index (treatment: DMSO) | protein stability index (treatment: MLN4924 1 uM, 8 h)
1 | SSSTPLEDEEPQEPNRLETGEAGE [RTN2] | 5.51 ± 0.34 | 5.56 ± 0.3
2 | LSVCPLEGSREHAFQITGVWDASR [PLEKHN1] | 2.88 ± 0.24 | 3.38 ± 0.37
3 | QEGLLDRCVSFQARFAEKEELMLV [HDAC6] | 2.44 ± 0.34 | 2.52 ± 0.53
4 | EPSWECKFDHIEVRDGPFGFSPII [NETO1] | 2.36 ± 0.36 | 2.3 ± 0.22
5 | LIGFCMFVLSLVKKHYRLQFYMFG [CDS2] | 2.33 ± 0.61 | 2.47 ± 0.85
6 | SKKTFQITKQGDGVDFLSWFLNAL [USP39] | 2.35 ± 0.16 | 2.29 ± 0.24
7 | CDECGKIFSQSSALILHQRIHSGK [ZNF396] | 5.51 ± 0.39 | 5.51 ± 0.11
8 | PQYEFKEAAGSFTSSLAQPGAYYP [IRX6] | 3.37 ± 0.19 | 3.36 ± 0.24
9 | LTSLLACLPAGPRVYFLKGGYETF [DUSP5] | 2.34 ± 0.42 | 2.36 ± 0.47
10 | TLLAVGCNDGRIVIWDFLTRGIAK [RBBP5] | 2.65 ± 0.51 | 2.55 ± 0.84
11 | PTEQVNELVALIPHSDQRLRPQRT [TMEM106C] | 4.63 ± 0.12 | 4.75 ± 0.1
12 | KEVPVVHTETKTITYESSQVDPGT [EPB41L3] | 5.33 ± 0.42 | 5.2 ± 0.25
13 | DNQWMTQINRLQKLIDRLEKKDLK [NECAB1] | 2.13 ± 0.43 | 3.16 ± 0.33
14 | AVSCVFLAFVIVLLAHRLRRWHKS [PCDHGA10] | 2.33 ± 0.36 | 1.92 ± 0.23
15 | APAPAPASSGQHHDFLSDLFSDDY [CEBPB] | 5.13 ± 0.29 | 5.14 ± 0.16
16 | ELDRWLYHLEKQTALLGGPRRCHS [PLEKHN1] | 2.24 ± 0.19 | 2.17 ± 0.39
17 | RPGVQDAALIEAIQDRLSNTLQTY [VDR] | 2.78 ± 0.3 | 3.09 ± 0.28
18 | FTQNQIEVLENVFRVNCYPGIDIR [HESX1] | 2.42 ± 0.4 | 2.14 ± 0.68
19 | IQFKKHEEEGIETQYFAELLMTSG [CNOT7] | 2.82 ± 0.21 | 2.82 ± 0.35
20 | PPPDVTQLTPPSHDLTDNIFPRLV [ANKRD17] | 4.04 ± 0.34 | 4.06 ± 0.16
21 | GEGRKSRKFSRLSCLRRRRHPPKV [SMG5] | 3.69 ± 0.37 | 3.82 ± 0.28
22 | NKTDVVLILELVSGGELFDFLAEK [DAPK3] | 2.55 ± 0.58 | 2.68 ± 0.96

Row | Sequence | protein stability index (treatment: DMSO) | protein stability index (treatment: MLN4924 1 uM, 8 h)
23 | EIIRVILKLYEQWKNFDERKEMAT [CCNC] | 2.09 ± 0.52 | 2.38 ± 0.3
24 | ARSESVLLHMPQPVNPELTAGPIT [TRIM43] | 4.31 ± 0.061 | 4.41 ± 0.078
25 | VSGSHFVGVDGVRAFLQTYSHEVS [PCDHGA10] | 2.49 ± 0.27 | 2.24 ± 0.24
26 | QHGQLGTNTRRGSRAPCKVQGLEG [NEK8] | 4.18 ± 0.15 | 4.19 ± 0.19
27 | DQDLRTYLDKAPPPGLPAETIKDL [CDK4] | 5.07 ± 0.28 | 4.94 ± 0.2
28 | PETKQRKLSPLRLSVSNNQEPDFI [KMT2E] | 4.16 ± 0.24 | 4.38 ± 0.32
29 | MAQTVPPCELPCKEYDVARNTGAY [TEKT4] | 4.16 ± 0.27 | 4.08 ± 0.26
30 | RKRNPSRKKQHICDECGKHFSQGS [ZNF24] | 3.91 ± 0.19 | 4.12 ± 0.097
31 | GMSYLYASWMYQLQHGDQLSICFT [TEX19] | 3 ± 0.39 | 2.92 ± 0.42
32 | MLGKYGSSLEFTELLTLVNRKVSQ [CASP6] | 2.29 ± 0.23 | 2.34 ± 0.43
33 | LCATDFKFAMYPPSMIATGSVGAA [CCND2] | 2.38 ± 0.23 | 2.38 ± 0.29
34 | GGAEMRTQHWPIRLDGQQEPQPFV [MYORG] | 3.86 ± 0.27 | 3.85 ± 0.13
35 | LSQRVMCNDLFKVNPFQLQQFRAD [TIAF1] | 2.48 ± 0.18 | 2.5 ± 0.32
36 | LDYSFGDHTSEAVRNLFGLDPSSG [PCDHGC5] | 3.55 ± 0.13 | 3.54 ± 0.38
37 | VVLCFSIANPNSLHHVKTMWYPEI [RHOBTB2] | 3.23 ± 0.42 | 3.16 ± 0.21
38 | RKLLSPVSREENREDKATIKCETS [PPFIA4] | 5.11 ± 0.27 | 5.14 ± 0.26
39 | YFALRKILKQLIADVTLDPETAHP [TRIM39] | 4.09 ± 0.2 | 4.34 ± 0.21
40 | YESSADIAGDEGTQIPADEDTQTD [TAF7L] | 5.61 ± 0.24 | 5.53 ± 0.24
41 | PEGLDSDFLAVLSDYPSPDISPPI [SLA] | 4.08 ± 0.11 | 4.14 ± 0.097
42 | YECNHCGKGFRHSSSLAQHQRKHA [ZNF8] | 5.08 ± 0.32 | 5.12 ± 0.28
43 | DFNLCLFYLPSSPNLSLASEDEEE [SMG5] | 2.85 ± 0.21 | 3.14 ± 0.24
44 | NNEAFMNQEITKAFHVRRTNRVKE [RHOBTB2] | 4.44 ± 0.25 | 4.48 ± 0.21
